{
  "source": "patent US6770444",
  "target": "human Ob-Rb (human) (UniProt P48357)",
  "sequence (P48357 22-1165)": "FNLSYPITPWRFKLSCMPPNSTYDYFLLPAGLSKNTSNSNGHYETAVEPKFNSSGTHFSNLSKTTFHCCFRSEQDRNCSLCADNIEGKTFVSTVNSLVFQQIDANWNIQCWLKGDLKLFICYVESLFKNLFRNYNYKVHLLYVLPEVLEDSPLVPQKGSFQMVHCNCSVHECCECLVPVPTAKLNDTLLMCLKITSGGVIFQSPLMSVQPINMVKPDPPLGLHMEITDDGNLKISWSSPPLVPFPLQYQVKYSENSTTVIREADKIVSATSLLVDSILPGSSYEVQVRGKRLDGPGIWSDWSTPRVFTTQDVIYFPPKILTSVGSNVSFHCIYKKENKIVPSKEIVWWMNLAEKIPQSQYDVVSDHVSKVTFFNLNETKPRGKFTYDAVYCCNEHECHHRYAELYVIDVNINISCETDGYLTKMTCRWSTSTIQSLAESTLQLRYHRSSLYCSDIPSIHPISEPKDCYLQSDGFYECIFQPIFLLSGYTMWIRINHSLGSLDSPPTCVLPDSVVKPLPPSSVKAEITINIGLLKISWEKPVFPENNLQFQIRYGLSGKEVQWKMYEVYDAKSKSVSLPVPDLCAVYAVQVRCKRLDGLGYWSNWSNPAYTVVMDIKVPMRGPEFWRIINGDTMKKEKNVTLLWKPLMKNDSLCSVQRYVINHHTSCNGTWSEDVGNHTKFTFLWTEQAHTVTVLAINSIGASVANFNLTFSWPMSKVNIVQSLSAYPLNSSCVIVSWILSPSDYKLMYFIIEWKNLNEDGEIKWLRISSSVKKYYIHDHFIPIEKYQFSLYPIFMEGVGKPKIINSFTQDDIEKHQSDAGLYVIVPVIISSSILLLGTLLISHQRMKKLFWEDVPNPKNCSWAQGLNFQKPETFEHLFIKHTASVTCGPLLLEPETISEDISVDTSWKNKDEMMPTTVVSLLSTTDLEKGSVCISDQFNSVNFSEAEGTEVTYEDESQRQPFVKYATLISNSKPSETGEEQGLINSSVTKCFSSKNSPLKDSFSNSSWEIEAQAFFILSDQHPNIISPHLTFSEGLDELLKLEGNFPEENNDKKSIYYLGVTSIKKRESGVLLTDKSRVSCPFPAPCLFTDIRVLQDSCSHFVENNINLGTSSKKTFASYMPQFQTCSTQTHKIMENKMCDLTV",
  "assay": "SPA displacement of [125I] leptin, Cos-7 cells transfected with human Ob-Rb",
  "note": "pIC50: −log10 of the molar value.",
  "data": [
    {"substance": "leptin (unlabeled) (ligand)", "values": [
      {"measurement": "pIC50", "result": "7.82 to 8.00"}
    ]}
  ]
}
